Target: T1, SETD3 WT (Homo sapiens, UniProt Q86TU7)
T1 construct: GST (cleaved yes); made in house; host or cells: Escherichia coli BL21(DE3) CodonPlus
T1 sequence (Q86TU7 1-594): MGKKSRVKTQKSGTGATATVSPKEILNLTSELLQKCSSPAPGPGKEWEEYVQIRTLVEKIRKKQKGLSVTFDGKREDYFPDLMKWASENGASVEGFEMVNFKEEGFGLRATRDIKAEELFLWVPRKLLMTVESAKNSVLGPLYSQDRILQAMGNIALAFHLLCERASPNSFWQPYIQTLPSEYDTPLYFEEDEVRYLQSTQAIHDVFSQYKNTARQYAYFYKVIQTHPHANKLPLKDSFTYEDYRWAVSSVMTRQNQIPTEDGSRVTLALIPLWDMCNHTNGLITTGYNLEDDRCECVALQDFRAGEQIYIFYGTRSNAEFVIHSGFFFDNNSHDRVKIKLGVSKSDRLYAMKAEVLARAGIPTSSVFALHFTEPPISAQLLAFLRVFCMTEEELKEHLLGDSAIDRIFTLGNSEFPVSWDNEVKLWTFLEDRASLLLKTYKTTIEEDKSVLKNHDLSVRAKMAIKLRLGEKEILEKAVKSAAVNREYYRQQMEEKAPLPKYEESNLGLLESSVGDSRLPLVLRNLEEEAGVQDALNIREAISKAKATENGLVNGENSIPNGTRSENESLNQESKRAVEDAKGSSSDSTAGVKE
Experiment: Steady-state kinetics of SETD3 WT on K73 peptides (Fig. 3b, c; pH 10.5, 37 °C, 40 µM SAM)
Format: biochemical
Procedure: Fig. 3 Kinetics of SETD3 on H73 and K73 peptides. a Comparison of activities of three variants (WT, N255A, and N255V) on H73(66–80) peptide. The assays were performed at room temperature (~22 °C) and pH 8.0 using [WT] = 0.18 μM, [N255A] = 0.18 μM, and [N255V] = 0.72 μM. b Comparison of SETD3 WT activities on two K73 peptides (residues 66–80 and 66–88). The assays were performed at 37 °C and pH 10.5 using [WT] = 3 and 15 μM, respectively, for the long and short peptides. c Comparison of activities of three variants (N255A, N255V, and WT) on K73(66–88) peptide. The assays were performed at 37 °C and pH 10.5 using [N255A] = 90 nM, [N255V] = 0.72 μM and [WT] = 4 μM. Data represent the mean ± SD of N number of independent determinations (N = 3 for the WT and N = 2 for the mutants) performed in duplicate. Source data are provided as a Source Data file. d, e Mass spectrometry analysis of K73(66–88) methylation kinetic showing representative spectra at various time points for N255A variant (panel d) and SETD3 WT enzyme (panel e). The assays were performed at 37 °C and pH 10.5 using 3 μM for both N255A and WT. f In vitro methylation reactions with SETD3, indicated full-length actin proteins, and radiolabeled methyl donor (^3H-SAM). Right, Reactions were resolved by SDS–PAGE and activity was visualized by autoradiography. […] The first column head is 'SETD3', and the substrate peptide is printed only on the plot axis. / Panel b: the first column head is 'SETD3 (WT)', and the rows are K73 peptide substrates.
Recombinant human SETD3 (pXC2003) was expressed as a GST-fusion[22] in Escherichia coli BL21(DE3) CodonPlus^TM cells (Stratagene). The SETD3 mutants at residue 255 (N255A; pXC2093 and N255V; pXC2094) were generated with Q5 Site-Directed Mutagenesis Kit (New England Biolabs), confirmed by sequencing and the same protocol for expression and purification were followed. Briefly, the purification was conducted in a BIO-RAD NGC^TM system using a three-column chromatography of glutathione-sepharose, HiTrap Q-HP and Superdex 200. The GST tag was removed by PreScisson Protease (purified in-house). The purified SETD3 proteins at a concentration ~25–35 mg/ml were kept at −80 °C in storage buffer for future use [20 mM Tris (pH 8.0), 200 mM NaCl, 5% glycerol, and 0.5 mM tris (2-carboxyethyl) phosphine (TCEP)].
A reaction mixture contained 20 mM Tris/HCl (pH 8.0) or 20 mM glycine/NaOH (pH 10.5), 50 mM NaCl, 0.1 mg/ml BSA, 1 mM DTT, 0.18–15 µM SETD3 (as indicated in Fig. 3), 40 µM SAM and varying concentration of peptides. The reactions were carried out at room temperature (~22 °C) or 37 °C for different time (20 min to 3 h) with a total volume of 20 µl, and terminated by the addition of TFA to 0.1% (v/v) for Tris/HCl (pH 8.0) or 0.4% (v/v) for Glycine/NaOH (pH 10.5). Samples terminated with the addition of 0.4% (v/v) TFA were then further diluted 4× with buffer 20 mM Tris/HCl (pH 8.0), 50 mM NaCl, 0.1 mg/ml BSA, 1 mM DTT to reduce the TFA concentration. The dependence of the velocity of product formation per enzyme on substrate concentration was analyzed according to the Michaelis–Menten equation.

[1] = pH 10.5, 37 °C, [WT] = 3 and 15 μM for long and short peptide (Fig. 3b), 4 μM (Fig. 3c)
[2] = pH 10.5, 37 °C, [WT] = 3 and 15 μM for long and short peptide (Fig. 3b), 4 μM (Fig. 3c), mean ± SD

Row | Substance | increase of catalytic efficiency on K73 by lengthened peptide (factor in kcat/Km, long (66–88) vs. short (66–80) peptide) | kcat/Km [1] | Km [2] | Km compared with H73(66–80) peptide (pH 10.5, K73(66–88) vs. H73(66–80)) | affinity for the substrate weaker than for H73 substrate (Km, K73(66–80) vs. H73(66–80)) | maximum reaction rate slower than for H73 substrate (kcat, K73(66–80) (pH 10.5, 37 °C) vs. H73(66–80) (pH 8.0, ~22 °C)) | loss in catalytic efficiency (kcat/Km, K73(66–80) vs. H73(66–80)) | kcat [2]
1 | K73(66–88): K73-containing actin H73K peptide, residues 66–88 (TLKYPIEKGIVTNWDDMEKIWHH; UniProt P60709 66-88, looked up, variant H73K) | ~ 100 | 36.1 M⁻¹ s⁻¹ | 5.2 µM | about four-fold better |  |  |  | 
2 | K73(66–80): K73-containing (H73K) actin peptide, residues 66–80 (TLKYPIEKGIVTNWD; UniProt P60709 66-80, looked up, variant H73K) |  | 0.361 M⁻¹ s⁻¹ | 430 µM |  | ~ 20 -fold | ~ 40 -fold | more than 1000 -fold | 0.00017 s⁻¹

— article PMC6684798, “Structural basis for the target specificity of actin histidine methyltransferase SETD3” (Nature Communications, 2019)
